# Results published in patent US20020137891A1, “Protein scaffold and its use to multimerise monomeric polypeptides” (priority 1999, published 2002).
# Read-outs that look alike come from different tables or passages of the source.
# B1: sht-GroEL (191-345): short histidine tail minichaperone, GroEL residues 191-345 (protein, UniProt P0A6F5 191-345, looked up, fragment)
# chain: EGMQFDRGYLSPYFINKPETGAVELESPFILLADKKISNIREMLPVLEAVAKAGKPLLIIAEDVEGEALATLVVNTMRGIVKVAAVKAPGFGDRRKAMLQDIATLTGGTVISEEIGMELEKATLEDLGQAKRVVINKDTTTIIDGVGEEAAIQGR
# modifications: short histidine tail
# B2: GroEL(191-345): GroEL(191-345) minichaperone monomer (protein, UniProt P0A6F5 191-345, looked up, fragment)
# chain: B1 chain
# modifications: apical domain
# notes: GroEL(191-345) minichaperone monomer
# B3: Gp31 (1-111): wild-type bacteriophage T4 Gp31 (gene product), cpn10 family co-chaperonin (protein, UniProt P17313 1-111, looked up)
# Capsid assembly protein Gp31: MSEVQQLPIRAVGEYVILVSEPAQAGDEEVTESGLIIGKRVQGEVPELCVVHSVGPDVPEGFCEVGDLTSLPVGQIRNVPHPFVALGLKQPKEIKQKFVTCHYKAIPCLYK
# B4: sht-GroEL (193-335): shortest minichaperone, short histidine tail GroEL residues 193-335 (protein, UniProt P0A6F5 193-335, looked up, fragment)
# chain: MQFDRGYLSPYFINKPETGAVELESPFILLADKKISNIREMLPVLEAVAKAGKPLLIIAEDVEGEALATLVVNTMRGIVKVAAVKAPGFGDRRKAMLQDIATLTGGTVISEEIGMELEKATLEDLGQAKRVVINKDTTTIIDG
# modifications: short histidine tail
# B5: sht-GroEL (191-376): histidine-tagged (short histidine tail; sht) minichaperone GroEL(191-376) (protein, UniProt P0A6F5 191-376, looked up, fragment)
# chain: EGMQFDRGYLSPYFINKPETGAVELESPFILLADKKISNIREMLPVLEAVAKAGKPLLIIAEDVEGEALATLVVNTMRGIVKVAAVKAPGFGDRRKAMLQDIATLTGGTVISEEIGMELEKATLEDLGQAKRVVINKDTTTIIDGVGEEAAIQGRVAQIRQQIEEATSDYDREKLQERVAKLAGGV
# modifications: short histidine tail
# B6: GroES (1-97): E. coli co-chaperone, seven membered ring of 10 kD subunits (protein, UniProt P0A6F9 1-97, looked up)
# Co-chaperonin GroES: MNIRPLHDRVIVKRKEVETKSAGGIVLTGSAAAKSTRGEVLAVGNGRILENGEVKPLDVKVGDIVIFNDGYGVKSEKIDNEEVLIMSESDILAIVEA
# Experiments:
# [1] = tested on: COS-7, PC12, and SH-SY5Y cells; settings: cited from earlier work
# [2] = tested on: E. coli SV2 groEL44; test: In vivo complementation of thermosensitive groEL mutant at 43° C., strain SV2; format: cell-based; settings: for Relative colony forming ability, SV2 groEL44: pJC plasmid, relative to growth at 30° C.
# Experimental: (§1) In vivo complementation experiments. Complementation experiments were performed by transforming electro-competent SV2 or SV6 cells with the pJC series of expression vectors and plating an aliquot of the transformation reactions directly at 43° C. The percentage of viable cells relative to the growth at 30° C. was determined. A representative number of clones which grew at 43° C. were incubated in absence of any selective markers at permissive temperature. After prolonged growth the loss of the pJC plasmids and the ts phenotype were verified. Each experiment was performed in duplicate. Plasmids carrying no groE genes or encoding the GroE proteins were used as negative or positive controls, respectively.
# [3] = tested on: E. coli SV6 groEL673; test: In vivo complementation of thermosensitive groEL mutant at 43° C., strain SV6; format: cell-based; settings: for Relative colony forming ability, SV6 groEL673: pJC plasmid, relative to growth at 30° C.
# Experimental: as §1
# [4] = tested on: mutant Huntingdon exon 1-expressing PC12 and SH-SY5Y cells; settings: overexpression in PC12 and SH-SY5Y cells; D. Rubinsztein et al.; cited from earlier work
# [5] = tested on: bacteriophage λ (b2cI); test: Growth (plaque formation) of bacteriophage λ at 30° C. in transformed wild-type and groEL mutant strains; format: cell-based, E. coli; parameters: key to Growth of bacteriophage λ, SV1 (groEL^+) / Growth of bacteriophage λ, SV2 groEL44: +++: normal plaque-forming ability relative to wild-type groEL^+ strain, in terms of both number and size; ++: 5-fold fewer plaques relative to wild-type groEL^+ strain, or both; 10-fold fewer plaques, or plaque size reduced relative to wild-type groEL^+ strain, or both; +/−: 10^2-fold fewer plaques and plaque size reduced relative to wild-type groEL^+ strain; no visible plaques (<10^−4); settings: for Growth of bacteriophage λ, SV1 (groEL^+) / Growth of bacteriophage λ, SV2 groEL44 / Growth of bacteriophage λ, SV3 GroEL59 / Growth of bacteriophage λ, SV6 groEL673: pJC plasmid
# From the text: (§2) Bacterial and bacteriophage strains. The E. coli strains used in this study were: C41(DE3), a mutant of BL21(DE3) capable of expressing toxic genes (Miroux, B. & Walker, J. E. (1996) J. Mol. Biol. 260, 289-298); SV2 (B178groEL44), SV3 (B178groEL59) and SV6 (B178groEL673): isogenic strains carrying temperature-sensitive alleles of groEL; SV1(=B178) (Georgopoulos, C., Hendrix, R. W., Casjens, S. R. & Kaiser, A. D. (1973) J. Mol. Biol. 76, 45-60), AI90 (ΔgroEL::kan^R) [pBAD-EL] (Ivic, A., Olden, D., Wallington, E. J. & Lund, P. A. (1997) Gene 194, 1-8), and TG1 (Gibson, T. J. (1984) Ph.D. thesis, University of Cambridge, U.K). Bacteriophage λb2cI (Zeilstra-Ryalls, J., Fayet, O., Baird, L. & Georgopoulos, C. (1993) J. Bacteriol. 175, 1134-1143) was used according to standard methods (Arber, W., Enquist, L., Hohn, B., Murray, N. E. & Murray, K. (1983) in Lambda II., ed. R. W. Hendrix, J. W. r., F. W. Stahl and R. A. Weisberg (Cold Spring Harbor Laboratory, Cold Spring Harbor, N.Y.), pp. 433-466); plaque formation was assayed at 30° C. T4D0, a derivative of bacteriophage T4 (Zeilstra-Ryalls, J., Fayet, O., Baird, L. & Georgopoulos, C. (1993) J. Bacteriol. 175, 1134-1143), was used according to standard methods (Karam, J. D. (1994) Molecular biology of bacteriophage T4. (American Society for Microbiology, Washington, D.C.)); plaque formation was assayed at 37° C.
# (§3) Bacteriophage λ requires the chaperonins GroES and GroEL for protein folding during morphogenesis; bacteriophage T4 requires GroEL and Gp31, the latter being encoded by the bacteriophage genome (Zeilstra-Ryalls, J., Fayet, O. & Georgopoulos, C. (1991) Annu. Rev. Microbiol. 45, 301-325). Nine groE alleles which fail to support λ growth have been sequenced (Zeilstra-Ryalls, J., Fayet, O., Baird, L. & Georgopoulos, C. (1993) J. Bacteriol. 175, 1134-1143). We examined the ability of MC7, over-expressed from the constitutive tet promoter on a high-copy number vector (see FIG. 2), to complement three mutant groEL alleles for plaque formation by λ (b2cI) at 30° C. (Table 3) and T4 at 37° C. (Table 4).
# [6] = tested on: bacteriophage T4 (T4D0); test: Growth (plaque formation) of bacteriophage T4 at 37° C. in transformed wild-type and groEL mutant strains; format: cell-based, E. coli; parameters: key: +++: normal plaque-forming ability relative to wild-type groEL^+ strain, in terms of both number and size; ++: 5-fold fewer plaques relative to wild-type groEL^+ strain, or both; 10-fold fewer plaques, or plaque size reduced relative to wild-type groEL^+ strain, or both; +/−: 10^2-fold fewer plaques and plaque size reduced relative to wild-type groEL^+ strain; no visible plaques (<10^−4); settings: pJC plasmid
# From the text: as §2, §3
# [7] = tested on: bacteriophage T4 (T4D0); test: as above; format: cell-based, E. coli; settings: text prints 30° C. (Table 3)
# [8] = tested on: AI90 (ΔgroEL::kan^R) [pBADEL] E. coli strain; test: Plating ability of transformed AI90 (ΔgroEL::kan^R) [pBAD-EL] at 37° C. on depletion of GroEL; format: cell-based; parameters: key: +++: growth identical to that in presence of 0.2% L(+)arabinose (100%), in terms of both number and size; ++: about 50% of the colonies relative to that in presence of 0.2% L(+)arabinose; +: about 30% of the colonies; +/−: ≦5% of the colonies and size reduced relative to that in presence of 0.2% L(+)arabinose; −: no visible colonies
# Experimental: AI90 (ΔgroEL::kan^R) [pBAD-EL] cells were transformed with the pJC vector series. Transformants were selected at 37° C. on LB supplemented with 50 μg.ml^−1 of kanamycin, 120 μg.mL^−1 of ampicillin, 25 μg.mL^1 of chloramphenicol and 0.2% L(+)arabinose. Depletion of GroEL protein was analysed at 37° C. by plating the same quantity of AI90 [pBAD-EL+pJC vectors] cells on LB plates containing 1% D(+)glucose or various amount of arabinose.
# Each experiment was performed in triplicate. Plasmids carrying no groE genes or encoding the GroE proteins were used as negative or positive controls, respectively.
Molecule,"Relative colony forming ability, SV2 groEL44 [2]","Relative colony forming ability, SV6 groEL673 [3]","Growth of bacteriophage λ, SV1 (groEL^+) [5]","Growth of bacteriophage λ, SV2 groEL44 [5]","Growth of bacteriophage λ, SV3 GroEL59 [5]","Growth of bacteriophage λ, SV6 groEL673 [5]","Growth of bacteriophage T4, SV1 (groEL^+) [6]","Growth of bacteriophage T4, SV2 groEL44 [6]","Growth of bacteriophage T4, SV3 groEL59 [6]","Growth of bacteriophage T4, SV6 groEL673 [6]",further results
HDJ-2/HSDJ: a human HSP40 homologue,,,,,,,,,,,inclusion formation ([1]; overexpression in COS-7 cells): increased inclusion formation; inclusion formation ([1]; overexpression in PC12 and SH-SY5Y cells): did not modify inclusion formation
CC(=O)N[C@@H](CSC(=O)[C@]1([C@@H](O)C(C)C)NC(=O)[C@H](C)[C@@H]1O)C(=O)O [lactacystin],,,,,,,,,,,proportion of cells with inclusions of mutant Huntington exon 1 ([1]; treatment of transfected cells): increased
B1,0.01-0.02,0.07-0.09,,,,,,,,,Complementation of the groEL673 defect in SV6 (in words) [3]: complemented
B2,,,,,,,,,,,cell death [4]: reduced cell death; proportion of cells with inclusions [4]: reduced slightly but significantly
B3,0.5 × 10^−3,<10^−4,+++,− (no visible plaques (<10^−4)),− (no visible plaques (<10^−4)),− (no visible plaques (<10^−4)),+++,+++,+++,+++,Effect of over-expression on bacteriophage T4 growth in groEL strains (in words) [7]: allows T4 growth in all strains
B4,0.05-0.09,0.03-0.05,,,,,,,,,Complementation of the groEL44 defect in SV2 (in words) [2]: complements; Complementation of the groEL673 defect in SV6 (in words) [3]: less well
B5,<10^−4,<10^−4,+++,− (no visible plaques (<10^−4)),− (no visible plaques (<10^−4)),− (no visible plaques (<10^−4)),+++,− (no visible plaques (<10^−4)),+++,− (no visible plaques (<10^−4)),Plating ability ([8]; 0.00 % L(+)arabinose): −; Plating ability ([8]; 0.01 % L(+)arabinose): +/− (≦5% of the colonies and size reduced relative to that in presence of 0.2% L(+)arabinose); Plating ability ([8]; 0.10 % L(+)arabinose): + (about 30% of the colonies); Plating ability ([8]; 0.15 % L(+)arabinose): ++ (about 50% of the colonies relative to that in presence of 0.2% L(+)arabinose)
B6,5 × 10^−3,<10^−4,+++,+++,− (no visible plaques (<10^−4)),− (no visible plaques (<10^−4)),+++,+++,+++,− (no visible plaques (<10^−4)),Complementation of groEL mutant strains for bacteriophage λ growth (in words) [5]: allele-specific complementation; Effect of over-expression on plaque formation by bacteriophage λ in SV1 (groE^+) (in words) [5]: had no effect; Effect of over-expression on bacteriophage T4 growth in groEL strains (in words) [7]: allele-specific complementation
